assay: yeast display, Sf9 membrane polyspecificity reagent, FACS + sequencing; frameworks hold sequencing errors
Method in brief: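 Galactose induction of a Saccharomyces cerevisiae BJ5465 synthetic nanobody display library ran 36–48 hours. The cells were then stained for 1 hour at 4 °C with 10% biotinylated, detergent-solubilized Sf9 membrane reagent, pulled down on streptavidin microbeads and FACS-sorted into low and high (top ~1%) gates on expression and reagent-binding fluorescence. Labels for polyreactivity follow the gate of origin.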

Which “polyreactivity (PSR sort gate)” value does the source give for “QVQLVESGGGLVQAGGSLRLSCAASGSIFYPYAMGWYRQAPGKERELVAAIDYSDGSTYYADSVKGRFTISRDNAKNTVYLQMNSLKPEDTAVYYCAADGTYVWGSEEGNYWGQGTQVTVSS” here?
Its value is “low polyreactivity”.

Which “polyreactivity (PSR sort gate)” value does the source give for “QVQLVESGGGLVQAGGSLRLSCAASGSTFYPYAMGWYRQAPGKEREFVAAISGRGGSTFYADSVKGRFTISRDNAKNTVYIQMNSLKPEDTAVYYCAASVFKLVGYDYWGQGTQVTLSS” here?
The value was “high polyreactivity”.

With “QVQLVESGGGLVQAGGSLRLICAASGRTFGPYAMGWYRQAPGKEREFVAAITWRGGRTNYADSVKGRFTISRDNAKNTVYLQMNSLKPEDTAVYYCNAVISPHQWIRGGDSWGQGTQVTVSS” as the sequence, how does the “polyreactivity (PSR sort gate)” value read?
Its value is “low polyreactivity”.

With “QVQLVESGGGLVQAGGSLRLSCAASGSTSYNAMGWYRQAPGKERELVAAISDGGGSTYYADSVKGRFTISRDNAKNTVYLQMISLKPEDTAVYYCAADTITGDGYWAQGTQVTVSS” as the sequence, how does the “polyreactivity (PSR sort gate)” value read?
Its value is “low polyreactivity”.

With “QVQLVESGGGLVQAGGSLRLSCAASGSTFQGYTMGWYRQAPGKERELVAAISVRRGITYYADSVKGRFTISRDNAKNTVYLQMNSLKPEDTAVYYCNAYYYRPYGNKYGYWGQGTQVTVSS” as the sequence, how does the “polyreactivity (PSR sort gate)” value read?
The value was “high polyreactivity”.

Which “polyreactivity (PSR sort gate)” value does the source give for “QVQLVESGGGLVQAGGSLRLSCAASGIIFKQYAMGWYRQAPGKERELVAAITGSGGRTTYADSVKGRFTISRDNAMNTVYLQMNSLKPEDTAVYFCAAVGLSGWRDGYWGQGTQVTVSS” here?
Its value is “high polyreactivity”.

Which “polyreactivity (PSR sort gate)” value does the source give for “QVQIVESGGALVQAGGGHRLSCAASGRTFTYNAMGWYRQAPGKERELVAAITSGGSTNYADSVKGRFTISRDNAKNTVYLQMNSLKPEDTAVYYCAARRVYYSYRRYYYWGQGTQVTVSS” here?
Its value is “low polyreactivity”.

With “QVQLVESGGGLVQAGGSLRLSCAASGSIFWGNAMGCYRQAPGKERELVASISDSGGSTYADSVKGRFTISRDNAKNTVYLQMNSLKPEDTAVYYCAADDWYSAGIRNWYYGGYDYWGQGTQVTVSS” as the sequence, how does the “polyreactivity (PSR sort gate)” value read?
Its value is “low polyreactivity”.

With “QVQLVESGGGLVQAGGSLRLSCAASGSTYAVNVMGWYRQAPGKERELVATITYRDGRTYYADSVKGRFTISRDNAKNTVYLQMNSLKPEDTAVYYCAADAYRAQGDYWGQGTQVTVSS” as the sequence, how does the “polyreactivity (PSR sort gate)” value read?
The value was “low polyreactivity”.

With “QLQLVESGGGLVQAGGSLSLSCAASGSIFGYNAMGWYRPAPGKEREFVAAISFRGTSTYYADSVKGRFTISRDNAKNPVYLQMYSLKPEDTAVYYCAARSYDGDHYKHGYWGQGTQVTVSS” as the sequence, how does the “polyreactivity (PSR sort gate)” value read?
Its value is “high polyreactivity”.

With “QVQLVESGGGLVQAGGSLRLSCAASGSIFGWYAMGWYRQAPGKDWELVAASRRGGSTNYADSVKGRFTISRDNAKNTVYFQMNSLIPEATAVYYCAAGKSGYSKRIFRYSFDYWGQGTQVTVSS” as the sequence, how does the “polyreactivity (PSR sort gate)” value read?
Its value is “high polyreactivity”.

With “QVQLVESGGGLVQAGGSLRLSCAAYGSILYVYAMGWYRQAPGKERELVAVITAGGSTNYADSVKGRFTISRDNAKNTVYLQMNSLKPEHSAVYYCAADPYSVYGGDYWGQGTQVTVSS” as the sequence, how does the “polyreactivity (PSR sort gate)” value read?
The value was “low polyreactivity”.

For “QVQLVESGGGLVQAGGSLRLSCAASGRTFWTNAMGWYRQAPGKERELVAAISWTTGSTNYADSVKGRFTISRDNAKNTVYLQMNSLKPEDTAVYYWAADSQYGWPEYEYDYWGQGTQVTVSS”, which “polyreactivity (PSR sort gate)” value is on record?
Its value is “low polyreactivity”.

With “QVQLVESGGGLVQAGGSLRLSCAASGRIFRRYAMGWYRQAPGTETELVAAISSGASTYYADSVKGRFTISRDNAKNTVYLQMNSLKPEDTAVYYCAVDRPYYYGYRMDYWGQGTQVTVSS” as the sequence, how does the “polyreactivity (PSR sort gate)” value read?
The value was “low polyreactivity”.

With “QVQLVESGGGLVQAGGSHRLSCAASGRTFVVYAMGWYRQAPGKERELVARIRWRDVSTYYADSVKGRFTISRDNAKTTVYLQMNSLKPEDTAVYYCAARSYTGGGRLYYWGQGTQVTVSS” as the sequence, how does the “polyreactivity (PSR sort gate)” value read?
Its value is “high polyreactivity”.

For “QVQLVESGGGLVQAGGSLRLSCAASGSIFTGNAMGWYRQAPGKERELVAAISSTGTTNYADSVKGRFTISRDNAKNTVYLQMNSLKPEDTAVYYCARRWYSTWWYGYWGQGTQVTVSS”, which “polyreactivity (PSR sort gate)” value is on record?
Its value is “high polyreactivity”.

With “QVQHVESGAGLVQAGGSLRLSCAASGSIFEINAMGWYRQAPGKERELVAAITGSGGSTHYADSVKVRFTISRDNAKNTVYLQMNSLKPEDTAVYYCAAVPRYQYGYWGQGNQVTVSS” as the sequence, how does the “polyreactivity (PSR sort gate)” value read?
The value was “low polyreactivity”.

Which “polyreactivity (PSR sort gate)” value does the source give for “QVQLVESGGGLVQAGGSLRLSCAASGSIFNENPMGSYRQAPGKERELVAVITHRTGSTYYADSVKGRFTISRDNAKYTFYLQLTSLTPEDTAVYYCATRTRRNRYRGGEYDYWGQGTQVTVSS” here?
The value was “low polyreactivity”.

Which “polyreactivity (PSR sort gate)” value does the source give for “QFQLVESGGGLVQAGGSHRLSCAASGRIVDYYAMGWYRQAPGKERDLVAAISTSGGSTYYADSVKGRFTISRDNAKITVYLLMNSLKPEDTAVYYCGKDITVTYPVLDYDYWGQCTQVTVSS” here?
The value was “low polyreactivity”.

Which “polyreactivity (PSR sort gate)” value does the source give for “QVQLVESGGGLVQAGGSLRLSCAASGSTFYIHAMGWNRQAPGKERELVAAISATGTRTYYADSVKGRFTISRDNAKNTFYLQMNSLKPEDTAVYYWNAVYWYWWVITYVGPGLGYWGQVTQVTVSS” here?
The value was “high polyreactivity”.

With “QVQLVESGGGLVQAGGSLRLICAASGRTSVVNAMGWYRQAPGKERELVAAITSGGSTHYADSVKGRFTISRDNAKNTVYLQITSLKPEDTAGYYFNARDRRRTNLLDYWGQATQVTVSS” as the sequence, how does the “polyreactivity (PSR sort gate)” value read?
The value was “low polyreactivity”.

With “QVQLVESGGGLVQAGGSLRLSCAASGRIFYENAMGWYRQAPGKDRELVAAISGSGGSTYYADSVKGRFTISRDNAKNTVYLQMNSLKPEDTAVYYCNAYRRVPGYDYWGQGTQVTVSS” as the sequence, how does the “polyreactivity (PSR sort gate)” value read?
Its value is “high polyreactivity”.

For “QVQLVESGGGFVQAGGSLRLSCAASGSIFVKYAMGWYRQAPGTERELVAAISRSGDSTYYADSVKGRFTLSRDNAKNTVYLQMNSLNPEDTAAYSCAAYSGYGGVSMYYWGQGTQVTVSS”, which “polyreactivity (PSR sort gate)” value is on record?
The value was “low polyreactivity”.

With “QDQLVESGGGLVQAGGSLRLSCAAYGIIFWDNAMGWYRQAPGKERELVASINYSGGSTYYADSVKGRFTISRDNAKNTVYLQMYSLKPEDTAVYYCAARTVTLDDWDYAYDYWGQGTQVTVSS” as the sequence, how does the “polyreactivity (PSR sort gate)” value read?
The value was “low polyreactivity”.

With “QVQLVESGGGLVHAGGSLRLSCAASGSTFSRNTMGWYRQAPGKERELVAAITKSAVSTYNADSVKGRFTISRDNAKNTVYLQMNSLKPEDTAVYYCAKVYRTSTSKAYDYWGQGTQVTVSS” as the sequence, how does the “polyreactivity (PSR sort gate)” value read?
The value was “high polyreactivity”.

For “QVQLVESGGGLVQAGGSLRLSCAAYGRTIPRYAIGWSRQAPGKQRDFVDSISFSSGSTYYADSVKGRFTISRDNAKNTVYVQMKSMKAEDTAVDYSNDIPGSRYYGYRLYYYWGQGTQVTVSS”, which “polyreactivity (PSR sort gate)” value is on record?
The value was “high polyreactivity”.

Which “polyreactivity (PSR sort gate)” value does the source give for “QVQLVESGGGLVQAGGSLRLSCAASGFTFRVNAMGWYRQAPGKERELVAAISSGGSTNYADSVKGRFTISRDNAKNTVYLQMNSLNPEDNAVYYCAKRFKYIYYWGQGTQVTVSS” here?
The value was “high polyreactivity”.

With “QVQLVESGGGLVQAGGSLRLSCAASGSIFFYNVMGWYRQAPGKERELVAAITRSGGRTYYADSVKGRFTISRDNAKNNVYLQMNSLKPEDTAVYYCAAALGGKFDYWGQGTQVTVSS” as the sequence, how does the “polyreactivity (PSR sort gate)” value read?
Its value is “high polyreactivity”.

With “QVQLVESGGGLVQAGGSLRLSCAASGLIFDPNTMGWYRQAPGKERELVAAISSGGDTNYADSVKGRFTISRDNAKNTVYLQMNSLKPEDTAVYYCAAERYYFPRSYRYGYWGQGTQVTVSS” as the sequence, how does the “polyreactivity (PSR sort gate)” value read?
The value was “low polyreactivity”.

With “QVQLVESGGGLVQAGGSLRLSCAASARIFYPYAMGWYRQAPGKERELVAAINWIGGSTYYADSVKGRFTISRDNAKYTVYLQMNSLKPEDSAVYYCAASYWHRRYDYWGQGTQVTLSS” as the sequence, how does the “polyreactivity (PSR sort gate)” value read?
Its value is “high polyreactivity”.

With “QVQLVESGGGLVQAGGSLRLSCAASGRIFGGNAMGWFRQAPGKERELVAASTTRGGSTSADSVKGRFTISRDNAKNTVYLHMNSLKPEATAVYYCAVARSSHGGPRYLVRTYGYWGQATQVTVSS” as the sequence, how does the “polyreactivity (PSR sort gate)” value read?
Its value is “low polyreactivity”.

For “QVQLVESGGGLVQAGGSLRLSCAASGSIFRYYVMGWYRQAPGKERELVAAITKSAGSTYYADSVKGRFTISRDNAKNTVYLQMNSLKPEDTAVYYCAARRVSRGNSKFDYYWGQGTQVTVSS”, which “polyreactivity (PSR sort gate)” value is on record?
Its value is “high polyreactivity”.

For “QVQLVESGGGLVQAGGSLRLSCAASGSTFSPYAMGWYRQAPGKEREIVAAISWGDGSTYYADSVKGRFTISRDNAKNTVYLQINSLKPEDTAVYYCNVKPSARGAPLYDYWGQGTQVTVSS”, which “polyreactivity (PSR sort gate)” value is on record?
The value was “high polyreactivity”.

For “QVQLVESGGGLVQAGGSLRLSCAASGITFGANAMGWYRQAPGKERELVADITWSGGDTYYADSVKGRFTISRDNAKNTVYLQMNSLKPEDTAVYYCNALQPGLGSPLGEYDYWGQGTQVTVSS”, which “polyreactivity (PSR sort gate)” value is on record?
The value was “low polyreactivity”.

For “QVQLVESGAGLLQAGGSLRISCAASGLTFKIIAMGWYRQAPGKERELVAAISSGTSTNYADSVKGRFTISRDNAKITVYLQMNSLKPEDTAVYYCAARGFWGVAYRYYYWGQGTQVTLSS”, which “polyreactivity (PSR sort gate)” value is on record?
The value was “high polyreactivity”.

Which “polyreactivity (PSR sort gate)” value does the source give for “QVQLVESGGGLVQAGGSLRLSCAASGSIFTFYTMGWYRQAPGKERELVATIRWSVGSTYYADSVKGRFTISRDNAKNTVYLQMNSLKPEDTAVYYCAADSQWSYPDYPGEYAYDYWGQGTQVSVSS” here?
Its value is “low polyreactivity”.

Which “polyreactivity (PSR sort gate)” value does the source give for “QVQLQESGGGLVQAGGCLSCTASGTIFGQGDMGWYRQAPGKERELVATINDGASTYYADSVKGRFTISRDKAKNTVYLQKNSLKPDDTAGYYCAVFTDITTYFGYWGQGTQLTVSS” here?
The value was “low polyreactivity”.

With “QVQLVESGGGLVQAGGSLRLSCAASGITFGRYAMGWYRQAPGKERELVAAITTRGGSTYYADSVKGRFTISRDNAKNTVYLQMNSLKPEDTAVYYCAADYRWAGRYYYWGQGTQVTVSS” as the sequence, how does the “polyreactivity (PSR sort gate)” value read?
The value was “high polyreactivity”.

For “QVQLEESGGGLVQAGGSLRLSCAASGSIFVGYDMGWYRQAPGKVWELVAAITSSGVGSTYYADSVKGRFTISRDNAKNTVYLQMNSLKPEDTAVYYCAARTSLWWFLKYDYWGEGTQVTVSS”, which “polyreactivity (PSR sort gate)” value is on record?
Its value is “low polyreactivity”.

Which “polyreactivity (PSR sort gate)” value does the source give for “QVQLVESGGGLVQAGGSLRLSCAASGSIFEYNAMGWYRQAPGKERELVAAITDTGSITYYADSVKGRFTISRDNAKNTVYLQMNSLKPEDTAVYYCAARAYPATAVDRRQPGNYWGQGSQVTVSS” here?
The value was “low polyreactivity”.

With “QVQLVESGGGLVQAGGSLRLSCAAYGRIFDAYAMGWYRQAPGKERELVAAITQSGGSTFYADSVKGRFTNSRDNAKNTVYLQMNSLKPEDTAVYDSNTGLSGRRYGFGVSFGMDYWGQGTQVTVSS” as the sequence, how does the “polyreactivity (PSR sort gate)” value read?
Its value is “low polyreactivity”.

Which “polyreactivity (PSR sort gate)” value does the source give for “QVQLVESGGGLVQAGGSLRLSCAASGRTFGGNSMGWYRQAPAKERELVAAISRGGSTKYADSVKGRFTISRDNAKNTVYLQMNSLKPEDTAVYYCAASPKFHYDYWGQGTQVTVSS” here?
Its value is “low polyreactivity”.

With “QVQLVESGGGLVQAGGSLRISCAPSGSIFSDYAMGWYRQAPGKERELVATISSSGSTNYADSVKGRFTISRDNAKNTVYLQMNSLKPEDTAVYYCAAARLFAMDYWGQGTQVTVSS” as the sequence, how does the “polyreactivity (PSR sort gate)” value read?
The value was “low polyreactivity”.

— the nanobody polyreactivity screen of Harvey et al. (2022)
